Results on six substances are retold here after paper PMC7803741.

Like-named read-outs stand apart in the source and are kept apart here.

One may read the Kd as the free concentration of one partner at which half of the binding sites on the other are occupied at equilibrium, for simple one-to-one binding. A low value points to higher affinity. Broadly, the stoichiometry N is the number of molecules, sites or subunits per partner or assembly.

In assay [1] the target is clathrin adaptor protein AP2 (AP2 μ1 subunit as printed) (rat) (UniProt P84092). Kind of assay: ITC; VP-ITC, 25 °C; 50 mM Tris pH 7.8, 100 mM NaCl, 1 mM EDTA, 1 mM DTT; γ2 subunit protein or peptide (100–200 μM) injected into GABARAP, GABARAPL1 or AP2 (10–20 μM) in the cell; one-site binding model.
clathrin adaptor protein AP2 (AP2 μ1 subunit as printed) (rat), sequence (P84092 whole entry): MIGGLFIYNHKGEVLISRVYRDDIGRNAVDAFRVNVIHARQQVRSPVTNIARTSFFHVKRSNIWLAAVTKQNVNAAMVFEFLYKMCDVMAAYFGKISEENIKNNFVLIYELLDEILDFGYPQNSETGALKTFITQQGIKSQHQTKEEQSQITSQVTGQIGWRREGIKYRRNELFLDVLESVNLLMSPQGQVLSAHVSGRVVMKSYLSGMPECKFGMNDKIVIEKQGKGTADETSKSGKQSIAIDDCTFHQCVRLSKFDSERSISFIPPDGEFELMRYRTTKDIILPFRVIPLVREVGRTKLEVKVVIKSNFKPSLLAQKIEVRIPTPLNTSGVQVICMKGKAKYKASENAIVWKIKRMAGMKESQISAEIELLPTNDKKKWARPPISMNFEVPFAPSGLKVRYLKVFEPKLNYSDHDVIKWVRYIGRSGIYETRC
In assay [2] the target is GABAAR-associated protein (GABARAP) (mouse) (UniProt Q9DCD6). Described as above.
GABAAR-associated protein (GABARAP) (mouse), sequence (Q9DCD6 whole entry): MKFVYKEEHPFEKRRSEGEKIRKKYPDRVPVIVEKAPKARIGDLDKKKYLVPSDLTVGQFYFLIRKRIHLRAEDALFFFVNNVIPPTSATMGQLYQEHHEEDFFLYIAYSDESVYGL
Assay [3] addresses GABAA receptor-associated protein (GABARAP) (mouse) (UniProt Q9DCD6). As to the kind of experiment: ITC; VP-ITC at 25 °C; 50 mM Tris pH 7.8, 100 mM NaCl, 1 mM EDTA, 1 mM DTT; γ2 subunit protein or peptide (100-200 μM) injected into GABARAP, GABARAPL1 or AP2 (10-20 μM) in the cell; one-site binding model.
Assay [4] concerns the target GABAAR-associated protein (GABARAP) (mouse) (UniProt Q9DCD6). Kind of assay: ITC; VP-ITC, 25 °C; 50 mM Tris pH 7.8, 100 mM NaCl, 1 mM EDTA, 1 mM DTT; γ2 subunit protein or peptide (100–200 μM) injected into GABARAP, GABARAPL1 or AP2 (10–20 μM) in the cell; one-site binding model. The source holds these as a separate data set.
In assay [5] the target is clathrin adaptor protein AP2 (AP2 μ1 subunit as printed) (UniProt P84092). Kind of assay: ITC. The conditions noted are these: reference: unphosphorylated synthetic γ2-GIM peptide; sites Y405.
clathrin adaptor protein AP2 (AP2 μ1 subunit as printed), sequence (P84092 whole entry, looked up, tested part not stated): as the sequence (P84092 whole entry) above
The next assay has as its target GABARAP (UniProt Q9DCD6). Kind of assay: ITC. Particulars: reference: unphosphorylated synthetic γ2-GIM peptide; sites Y405.

GABARAP, sequence (Q9DCD6 whole entry, looked up): as the sequence (Q9DCD6 whole entry) above
GABAA receptor-associated protein (GABARAP) (mouse), sequence (Q9DCD6 whole entry): as above

“synthesized γ2-GIM WT peptide (from UniProt P22723-2 398-415)”: the Kd in assay [1] stood at 450 nM; in assay [2], 3.6 µM.
“GABAA receptor γ2 subunit GIM (GABARAP interacting motif, 398-415) (peptide)”: the stoichiometry N in assay [3] is 1.06.
“recombinant of the TM3–TM4 ICD lacking the 424–441 octadecapeptide (from UniProt P22723-2 375-442) (domain or fragment)”: the Kd in assay [2] amounted to 5.1 µM.
Regarding “GABAAR γ2 subunit GIM (GABARAP interacting motif, 398–415) (from UniProt P22723-2 398-415) (peptide)”, the Kd in assay [4] is 4.9 µM; in assay [1], 250 nM; in assay [2] it was 4.2 µM.
Regarding “synthetic pY403 γ2-GIM (from UniProt P22723-2 398-415) (peptide)”, the Kd in assay [1] was determined as 5200 nM; in assay [2] it was 0.82 µM.
On to “GABAA receptor γ2 subunit (γ2-GABAAR; γ2-GIM = residues 398–415) γ2-GIM, 398-415 (from UniProt P22723-2) pY405 peptide”, for which the “binding against the reference” value (in assay [5]; in the assay with GABARAP) was “lost” throughout.
